Experimental data: the nanobody polyreactivity screen of Harvey et al. (2022)

Assay: yeast display, Sf9 membrane polyspecificity reagent, FACS + sequencing; frameworks hold sequencing errors
Method in brief: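 A synthetic nanobody library was expressed on Saccharomyces cerevisiae BJ5465 by galactose induction for 36–48 hours. The library was stained for 1 hour at 4 °C with 10% biotinylated, detergent-solubilized Sf9 membrane reagent and enriched with streptavidin microbeads before FACS. Low and high (top ~1%) gates were set on anti-HA fluorescence for expression and streptavidin fluorescence for reagent binding, and each polyreactivity label reflects the gate of origin.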

Row | Sequence | polyreactivity (PSR sort gate)
1 | QVQLVESGGGLVQAGGSLRLSCAASGGTFSSNDMGWYRQAPGKERELVAAISWSGSSTDYADSVKGRFTISRDNAKNTVYLQMNSLKPDDTAVYYCNTDYWEITYSGVIWPEYDYWGQCTQVTVSS | low polyreactivity
2 | QVQLVESGGGLVQAGGSLRLSCAASGSIFRPYAMGWYRQAPGKERELVATITWRGGSTTYADSVKGRFTISRDNAKNTVYLQMNSLKPEDTAVYYCAADASWELFAWAHYDYWGQGTQVTVSS | low polyreactivity
3 | QVQLVESGGGLVQAGGSLRLSCAASGRTFGGYVMGWYRQAPGKERELVATITYSGGSTHYADSVKGRFTISRDNAKNTVYLQINSLKPEDTAVYYCARRRSYRYPSEYNYWGQGTQVTVSS | high polyreactivity
4 | QVQLVESGRGLVQAGGSLRLSCASSGSIKQNAMGWNRQAPGKETELVAAIDWDGSSTYYADSVKGRFTISRDNAKNTVYLQMNSLKPEDTAVYYCAKGWYRIKRNDYWGQGTQVTVSS | low polyreactivity
5 | QVQLVESGGGLVQAGVSLRLSCAASGSTFGWYAMGWYRQAPGKERELVAAISASGGSTYYADSVKGRFTISRDNAKNNVYLQMNSLKPEDTAVYYCAVRAWKFLTRYDYWGQGTKVTVSS | high polyreactivity
6 | QVQLVESGGGLVQAGGSLRLSCAASVSTFRTNAMGWYRQPPGKEREMVAAITLDGGSTYYADSVKGRFTISRDNEKNTVYLQMNSLKPEDTAVYYCAADVVSVVYLPFVNGGDYWGQGTQVTVSS | low polyreactivity
7 | QVQLVESGGGLVQAGGSLRLSCAASGSISPYYAMGWYRQEHGKEREMVAAISSGGSTYYADSVKGRFTISRDNAKNTVYLQMNSLKPEDTAVYYCAKAYNYLGYYKYLRYGKFCYWGEGTQVTVSS | high polyreactivity
8 | QVQLVESGGGLVQAGGSLRLSCAASGSTFYTYTMGWYRQAPGKERELVAAISTRGGSTYYADSVKGRFTISRDNAKNTVYLQMNCLKPEDTAVYYCAAVYRRGSGYDYWGQGNQVTVSS | high polyreactivity
9 | QVQLVESGGGLVQAGGSLRLSCAASGSTFDSNVMGWYRQAPGKERELVAAIDLSGGITYYADSVKGRFTISRDNAKNTVYLQMNSLKPEDTAVYYCATDEGYRYPHVDLTEVYYWGQGTQVTVSS | low polyreactivity
10 | QVQLVESGGGLVQAGGSLRLSCAASGRTFCYAMGWSRQAPGKERELVAAISYRGGGTYYADSVTGRFTISRDNAKYTVYLQMTSLKPEDTEVYFCNARQYRPWYPPYGYDYWGQGTQVTVSS | low polyreactivity
11 | QVQLVESGGGLVQAGGSLRLSCAASGSTLRRYAMGWYRQAPGKERELVAAISGSGDSTYYADSVKGRFTISRDIAKNTVYLQMNSLKPEDTAVYYCNAVYAFNGYDYWGQGTQVTVSS | low polyreactivity
12 | QVQLVESGGGLVQAGGSLRLSCAASGRLFKIYAMGWYRQAPGKERELVATISSGGRTNYADSVKGRFTISRDNAKNTVYLQMNSLKPEDTAVYYCNAGARVLYETESFDYWGQGIQVTVSS | low polyreactivity
13 | QVQLVESGGGLVQAGGSLRLSCAACGSISVYNAMGWYRQAPGKERELVAAISWSGGRTSYADSVKGRFTISRDNAKNTVYLQMNSLKPEDTAVYYCAADELTVMWDEDYWGQGTQVTVSS | low polyreactivity
14 | QGQLVESGGGLVQAGGSLRLSCAASGSTLVYNDMGWYRQAPGKEREFVAAISISGTSTYADSVKGRFTISRDNAKNTVYLQMNSLKPEDTAVYWGQGTQVTVSS | low polyreactivity
15 | QVQLVESGGGLVQAGGSLRLSCAASGSILLVYAMGWYRQAPGKERELVATITWTDGSTYYADSVKGRFTISRDNAKNTVYLQMNSLKPEDTAVYYCNAGASVNSPLVAEYYYWGQGTQVTVSS | low polyreactivity
16 | QVQLVESGGGLVQAGGSLRLSCAASGITFTGNSMGWYRQAPGKERELVAAISNRGGSTYYADSVKGRFTISRDNAKNTVYLQMNSLKREDTAVYYCRTSTPRRVSGNYWGQGTQVTVSS | high polyreactivity
17 | QVQLVESGGGLVQAGGSLRLSCAASGSTFYTNAMGWYRQAPGKERELVAVITSSGVRTYYADSVKGRFTISRDNAKKTVYFQMNSLKPEDTAVYYCAAEARVGDHFQILDYWGQGTQVTVSS | high polyreactivity
18 | QVQLVESGGGLDQAGGSLRLSCAASGSLFARNTMGGYRQAPGKERELVATITARGGSTYADSVKGRFTISRDNAKNTVYLQMNSLKPEDTAVYYCNADYGLFSRATFYGYDYWGQGTQVTVSS | low polyreactivity
19 | QVQLVESGGGLVQAGGSLRLSCAASGFIFTDNAMGRYRHAPRTERELVAAINLSGTRTYYADSVKGRFTISRDNAKNTVYLQMNSLKPEDTAVYYCNKSEDYTYDYWGQGTQVTVSS | low polyreactivity
20 | QVQLVESGGGLVQAGGSLRLSCAASGRTFADFTMGWYRQAPGKERELVAAISFSGGSTYYADSVKGRFTISRDNAKNTVYLHMNSLKPEDTAVYYCAAGHKRRAPRYYDWGQGTQVTVSS | high polyreactivity
21 | QVQLVESGGGLVQAGGSLRLSCAASGFIFRYYAMGWYIQAPWKERELVAAIRRGRSTYYADSVKGRFTISRDNAKYTVYLQMNSLKPEDTAVDYCAVRLVSRFGISSYDYWGQGTQVTVSS | high polyreactivity

Row | Sequence | polyreactivity (PSR sort gate)
22 | QVQLVESGGGLVQAGGSLRLSCAASGYTLYLNAMGWYSQAPGKERELVARISGGGSTNYADYVKGRFTMSRDNAKNTVYLQMNSLKPEDTAVYYCAATIFAYGYRSFKLDYWGQGTQVTVSS | low polyreactivity
23 | QVQLVESGGGLVQAGGSLRLSCAASGSIFPIYAMGRYRQAPGKERELVAAIDSSGGSTYYADSVKGRFTISRDNAKNTVYLQMNSLKPEDTAVYYCAADFGSKSTPYDYWGQGTQVTVSS | low polyreactivity
24 | QVQLVESGGGLVQAGGSLRLSCAASGRIFRDYAMGWYRLAPGKERELVAAITLSGTTTYYADSVKGRFTISRDNAKNTVYVQMNSLKPEDTAVYYCNAPRYRYRPHEGDYWGQGTQVTVSS | low polyreactivity
25 | QVQLVESGGGLVHAGGSLRLSCAASGRITTYYTMGRYRHAPGKERELVAAISWSGTSTYYADSVKGRFTISRDNAKNTVYLQMNSLKPEATAVYYCNAGWRYPLDSVTDDYWGQGTQVTVSS | high polyreactivity
26 | QVQLVESGAGLVQAGGSLRLSCAASGSTCPGNAMGWYRQAPGKERELVAVINSGGGTNYADSVKGRFTISRDNAKNTVYFQINSLNPEDTAVYYCAKGYRRSFIGYWYLKYGYWGQGTQVTVSS | high polyreactivity
27 | QVQLVESGGGLVQAGGSLRLSCAATGRIFQRNAMGWYRQAPGKERELVAVISKSGGSTYYADSVKGRFTISRDNAKNTVYLQMNSLKPEDTAVYYCATRYFRPGEKYDYWGQGTQVTVSS | low polyreactivity
28 | QVQLVESGGGLVQAGGSLRLSCAASGSTFPDYAMGWYRQAPGKERELVAAISWSGGSTYYADSVKGRFTISRDNAKNTVYLQMNSLKPEDTAVYYCAAGYSPPKPYSGGYYYWGQGTQVTVSS | low polyreactivity
29 | QVQLVESGGGLVQAGGSLRLSCAASGSTFRYYAMGWYRQAPGKERELVAAINYGGGRTYYADSVKGRFTISRDNAKNTVYLQMNSLKPEDTAVYYCATGYYYYRFYTYGYWGQGTQVTVSS | high polyreactivity
30 | QVQLVESVGGLVQAGGSLRLSCAASGRIFYVYVMGWYRPAPGKERELVAAISKRGDNTYYSDSVKGRFTISRDNAKNTVYLQMNSLKPEDTAVYYCNVKRYCGRSDYWGQGTQVTVSS | high polyreactivity
31 | QVQLVESGGGLVQAGGSLRLSCAASGSIFVLNAMGWYRQAPGQERELVAAITNVGSTYYADSVKGRFTISRDNAKNTVYLQMNSLKPEDTAVYYCAAVLPFKYDYWGQGTQVTVSS | low polyreactivity
32 | QVQLVESGGGLVQAGGSLRLSCAASGSIFVNNAMGWYRQAPGKERELVAAIRRGSSTNYADSVKGRFTISRDNAKNTVYLQMNSLKPEDTAVYDCAADHDDDEAQNYDYLGQGTQVTVSS | low polyreactivity
33 | QVQLVESGGGLVQAGGSLRLSCAASGSIFRYYAMGWYRQAPGKERELVATITSGGSTSYADSVKGRFTISRDNAKNTVYLQMNSLKPEDTAVYYCAKRSRHNKYYYWGQGTQVTVSS | high polyreactivity
34 | QDQLVESGGGLVQAGGSLRLSCAASGSTLARYGMGWYRQAPGKERELVAAISYSGGRTYYADSVKGRFTISRDNAKNTVYLQMNSLKPEDTAVYYCAARRVYVPRGPIEFYYWGQGTQVTVSS | high polyreactivity
35 | QVQLVESGGGLVQAGGSLRLSCAASGRTFYYYAMGWYRQAPGKERELVAAISSRGGRTYYADSVKGRFTISRDNAKNTVYLQMNSLKPEDTAVYYCAKVVAYYDRDSWGQGTQVTVSS | high polyreactivity
36 | QVQLVESGGGLVQAGGSLRLSCAASGITFGHYAMGWYRQAPGKERELVAAINFSGGSTYYADSVKGRFTISRDNAKNTVYLQMNSLKPEDTAVYYCAAKYSRSLRYPWYNYWGQGTQVTVSS | high polyreactivity
37 | QVQLVDSGGGFVQAGGSLRLSCAASGFIFRSYAMRWYRTAPGKERELVAAITKSGGRTYYADSVKGRFTISRDNAKNTVYLQMNSLKPEDTAVYYCAADGAYGGYDYWGQGTLVTVSS | low polyreactivity
38 | QVQLVESGGGLVQAGGSLRLSCAASGRIFDTYVMGWYRQAPGKERELVAAISGSGGSTYYADSVKGRFTISRDIAKNTVYLQMNSLKPEDTAVYYCAAARRYYAYRYDYWGQGTQVSVSS | high polyreactivity
39 | QVQLVESGVGLVQAGGSLRLSCAASGSIFTYNAMGLYRQAPGKERELVAAISRRGGTTYYADSVKGRITISRDNAMNTVYLKMNSLKPEDTAVYYCNVARHYAVESGFWGPGTQVTVSS | high polyreactivity
40 | QVQLVESGGGLVQAGGSLRLSCAASGRIFYVYGLGWYRQEPGKERELVAAISKRGDNTYYADSVKGRFTISRDNSKNTVYLQMNSLKPEDTAVYYCKVKRYGGRSDYWGQGTQVTVSS | high polyreactivity
41 | QVQLVESGGGLVQAGGSLRLSCAASGFTFVSYAMGWYRQAPGKERELVAAISRSGGRTYYADSVKGRFTISRDNAKNTVYLQMNSLKPEDSAVYYCAKAYRPFYSRVQDYDYWGQGTQVTVSS | high polyreactivity
